Measurements: article PMC10290117 (2023)
Numbered stars: 1 amine (or outer) side, 2 acyl side, 3 side chain; on linkers, the order of the positions; unused ones are H or OH. Square brackets hold non-standard residues; d marks the D form. Ends that are not written are not given here. OSE = (2S)-2-amino-3-sulfooxy-propanoic acid, sulfo-serine, O=C([C@H](COS(=O)(=O)O)N[*:1])[*:2]; Abu(4-PO3H2) = N[C@@H](CCP(=O)(O)O)C(=O)O; pS = N[C@@H](COP(=O)(O)O)C(=O)O

T1: HLA-B*0702, biotinylated recombinant HLA class I molecule of the Alpha assay (human, biotin)
T1 chain: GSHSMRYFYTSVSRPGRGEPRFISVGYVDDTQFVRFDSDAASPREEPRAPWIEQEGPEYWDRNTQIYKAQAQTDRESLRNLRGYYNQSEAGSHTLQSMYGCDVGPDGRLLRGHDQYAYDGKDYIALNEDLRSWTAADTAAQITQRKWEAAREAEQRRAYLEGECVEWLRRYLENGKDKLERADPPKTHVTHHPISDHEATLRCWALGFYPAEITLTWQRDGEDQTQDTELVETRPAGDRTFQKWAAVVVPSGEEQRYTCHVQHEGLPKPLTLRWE

B1: DOT1L_(998–1006) peptide LPASPAHQL (peptide)
peptide: LPASPAHQL
B2: MLL_(747–755) peptide EPRSPSHSM (peptide)
peptide: EPRSPSHSM
B3: pMLL_(747–755) phosphopeptide EPR(pS)PSHSM (peptide)
peptide: EPR[pS]PSHSM
B4: OSE-MLL_(747–755) peptide EPR(OSE)PSHSM (peptide)
peptide: EPR[OSE]PSHSM
B5: E7P-MLL_(747–755) peptide EPR(E7P)PSHSM (peptide)
chain: EPR[Abu(4-PO3H2)]PSHSM
B6: pDOT1L_(998–1006) phosphopeptide LPA(pS)PAHQL (peptide)
peptide: LPA[pS]PAHQL

Target: T1, HLA-B*0702, biotinylated recombinant …

| Kd [nM] | Binder |
| --- | --- |
| 54.3 | B1 |
| 27 | B2 |
| 56.7 | B3 |
| 26.2 | B4 |
| 33.9 | B5 |
| 309 | B6 |
